# Measurements taken from patent publication US20050214890.
# System: GST-RFP-SPSS/FXa-GFP-His6 fluorescent fusion protein [GST: P08515]
substance,measurement,value
coagulation factor Xa,SDS-PAGE and Western blot of substrate cleavage products (GST-RFP and GFP-His),"demonstrated specific cleavage of the substrate by FXa, as the amounts of the native proteins decreased while the amounts of the two truncated products (GST-RFP and GFP-His) increased with increasing concentrations of FXa"
